Experimental data: patent US20210371498A1, “MHC CLASS I COMPOSITIONS AND METHODS” (priority 2020, published 2021)

What follows are sequences tested against T1, HLA-A*02:01 (Homo sapiens, UniProt P04439, D140Y/D185E/D98H/E176V/E277Q/G131W/G231S/I119V/I121R/I166T/I218V/L300P/L318F/N151K/N90K/P208A/P217A/Q86G/Q94H/R138H/R169H/T345S) (assay: not given). Details: p*MHC-I/gTAX incubated with peptide and TAPBPR, 12% native gel.
T1 construct: Plasmid DNA encoding the BirA tagged luminal domain of MHC-I heavy chains HLA-A*02:01; made in house; Drosophila S2 cells (TAPBPR); gTAX synthetic (Genscript)
Format: binding

| Sequence | band of exchanged pMHC-I on native gel |
| --- | --- |
| YPNVNIHNF [non-specific peptide, non-specific gp29 peptide used as a negative control] | no condensed band |

What follows are sequences tested against T2, gTAX/HLA-A*02:01 (Homo sapiens, UniProt P04439, D140Y/D185E/D98H/E176V/E277Q/G131W/G231S/I119V/I121R/I166T/I218V/L300P/L318F/N151K/N90K/P208A/P217A/Q86G/Q94H/R138H/R169H/T345S) (assay: Native gel electrophoresis of TAPBPR-catalysed peptide exchange on gTAX/HLA-A*02:01 (Example 1)). Details: overnight incubation, 10-fold molar excess of peptide, with TAPBPR.
T2 construct: Plasmid DNA encoding the luminal domain of class I MHC (MHC-I) heavy chain HLA-A*02:01; made in house; Drosophila S2 cells (TAPBPR); gTAX synthetic (Genscript)
Format: biochemical

| Sequence | peptide exchange on gTAX/HLA-A*02:01 (native gel) |
| --- | --- |
| YPNVNIHNF [non-specific peptide, non-specific gp29 peptide used as a negative control] | no exchange was observed |

These sequences were tested against T1, HLA-A*02:01 (assay: not given). Details: not given.
Format: binding

| Sequence | Tm |
| --- | --- |
| VVFLHVTYV [Peptide 17] | 52.3 ± 0.0 °C |
| TLMNVLTLV [Peptide 15] | 61.2 ± 0.6 °C |
| TLACFVLAAV [Peptide 12] | 53.3 ± 0.6 °C |

Same assay, conditions: p/HLA-A*02:01 prepared by TAPBPR-mediated peptide exchange, 10-fold molar excess of peptide, overnight 4° C.; DSF first derivative; ± SD of 3 replicates

| Sequence | Tm |
| --- | --- |
| SIIAYTMSL [Peptide 14] | 53.3 ± 0.6 °C |
| ALNTLVKQL [Peptide 1] | 48.3 ± 0.6 °C |
| ALNTPKDHI [Peptide 26] | 44.4 ± 0.6 °C |
| GLMWLSYFI [Peptide 6] | 41.4 ± 7.9 °C |
| TTLPKGFYA [Peptide 32] | 46.3 ± 0.6 °C |
| LLLLDRLNQL [Peptide 22] | 42.4 ± 0.6 °C |
| SMWALIISV [Peptide 25] | 52.3 ± 0.6 °C |
| GMSRIGMEV [Peptide 8] | 48.3 ± 0.0 °C |
| LLLDRLNQL [Peptide 7] | 54.3 ± 0.6 °C |
| KLPDDFTGCV [Peptide 13] | 53.3 ± 0.0 °C |
| WLMWLIINL [Peptide 9] | 42.4 ± 4.0 °C |
| ILLLDQALV [Peptide 10] | 52.3 ± 0.0 °C |
| LLLQYGSFC [Peptide 31] | 47.3 ± 0.6 °C |
| VLNDILSRL [Peptide 2] | 50.3 ± 0.0 °C |
| IITTDNTFV [Peptide 24] | 42.4 ± 0.6 °C |
| ILLNKHIDA [Peptide 16] | 43.4 ± 0.0 °C |
| LQLPQGTTL [Peptide 28] | 44.4 ± 1.1 °C |
| LITGRLQSL [Peptide 29] | 44.4 ± 0.6 °C |
| LALLLLDRL [Peptide 27] | 43.3 ± 1.5 °C |
| NLNESLIDL [Peptide 4] | 47.3 ± 0.6 °C |
| RLNEVAKNL [Peptide 3] | 46.3 ± 0.6 °C |
| VLQLPQGTTL [Peptide 21] | 39.4 ± 0.0 °C |
| GLIAIVMVTI [Peptide 23] | 40.4 ± 0.6 °C |
| SLPGVFCGV [Peptide 11] | 59.3 ± 0.0 °C |
